Laboratory results published in the supplement of paper PMC9732359.
± gives the uncertainty stated by the source.

Assay: protein stability index of a GFP-peptide fusion (yeast GPS) (PSI 1-4); higher = more stable; sorted into four equal gates, so the index is relative within each strain
In short: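 Each library plasmid carries Cherry plus GFP with a tiled 17-residue yeast protein peptide fused downstream, and the pooled library was carried in yeast. Mid-log cultures in leucine-free medium were sorted into four equal gates by GFP/Cherry ratio. Reads from Illumina sequencing of PCR-amplified plasmids from each gate were assigned to strains by barcodes. Per peptide, the protein stability index was computed as the summed products of gate read frequency and gate number.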

Row | Sequence | protein stability index (doa10∆) | protein stability index (pdr5∆) | protein stability index (san1∆) | protein stability index (ubr1∆)
1 | RNSNPENTVGLISGAGA [RPN10] | 2.93 ± 0.11 | 2.81 ± 0.074 | 2.6 ± 0.067 | 2.06 ± 0.069
2 | RNSTRSSGFNEDIVGAL [REC8] |  | 3.58 ± 0.21 |  | 
3 | RNVGKTLVNKSTGLKNA [RPS1B] | 2.81 ± 0.098 | 2.72 ± 0.097 | 2.59 ± 0.12 | 2.96 ± 0.086
4 | RNVGKTLVNKSTGLKSA [RPS1A] | 2.81 ± 0.098 | 2.72 ± 0.097 | 2.59 ± 0.12 | 2.96 ± 0.086
5 | RNVTKGDIVRMLETAGF [SMC3] | 2.81 ± 0.099 | 3.07 ± 0.12 | 2.76 ± 0.1 | 3.19 ± 0.07
6 | RPDGVHVINVGKTWEKL [RPS0A] | 3.33 ± 0.12 | 3.41 ± 0.15 | 3.4 ± 0.13 | 3.04 ± 0.081
7 | RPDIVHTVFTSVNKNKR [RPL4A] | 1.26 ± 0.088 | 1.46 ± 0.11 | 1.24 ± 0.17 | 1.4 ± 0.12
8 | RPEQLSNIIHDESDTIS [SNF6] | 1.82 ± 0.09 | 2.58 ± 0.063 | 2.02 ± 0.11 | 2.32 ± 0.061
9 | RPFGVALLIAGHDADDG [PUP2] | 1.66 ± 0.16 | 2.66 ± 0.21 |  | 2.6 ± 0.14
10 | RPLPQWIRLRTNNTIRY [RPL39] | 1.85 ± 0.056 | 1.81 ± 0.054 | 1.5 ± 0.067 | 1.62 ± 0.052
11 | RPNLPTHNFKLSGVSNS [RGR1] | 1.72 ± 0.13 | 1.49 ± 0.062 | 1.85 ± 0.088 | 2.12 ± 0.054
12 | RQCFREKANDIGFHKYR [RPS29B] | 3.34 ± 0.15 | 3.35 ± 0.13 | 2.96 ± 0.1 | 2.88 ± 0.1
13 | RQQQENSSKIITLDLSN [SMC1] | 3.22 ± 0.11 | 3.35 ± 0.066 | 3.18 ± 0.066 | 3.18 ± 0.061
14 | RRAAYGVVRYVMESGAK [RPS3] | 1.5 ± 0.1 | 1.83 ± 0.13 |  | 1.84 ± 0.094
15 | RRILPKPSRTSRQVQKR [RPS7A] |  | 3.44 ± 0.15 | 2.74 ± 0.1 | 3.35 ± 0.14
16 | RRISSMPGGYFHSEISP [YAR002W/NUP60] | 2.27 ± 0.14 | 1.89 ± 0.11 | 2.96 ± 0.094 | 3.17 ± 0.14
17 | RRKFDPSSSENVMTPRE [UBP6] |  | 1.99 ± 0.11 | 2.45 ± 0.22 | 2.96 ± 0.23
18 | RRRREGKTDYYQRKRLV [RPL5] | 3.31 ± 0.094 | 3.26 ± 0.079 | 3.13 ± 0.046 | 3.26 ± 0.035
19 | RRSTPFSKIAEYYRIQK [ESC2] | 2.77 ± 0.071 | 2.9 ± 0.094 | 2.72 ± 0.078 | 2.94 ± 0.11
20 | RRVPKELAVENPLAKTM [SEC65] | 2.99 ± 0.052 | 2.93 ± 0.042 | 2.47 ± 0.054 | 1.69 ± 0.026
21 | RSDSYMLHKVLENKADP [RPT6] | 2.65 ± 0.1 | 2.99 ± 0.1 | 2.93 ± 0.056 | 2.83 ± 0.091
22 | RSEKSTTNAQTKKLIQK [SRP54] |  | 2.82 ± 0.13 | 2.77 ± 0.15 | 2.94 ± 0.098
23 | RSGSNAAASLPSKKLKT [RPC82] | 2.71 ± 0.068 | 2.91 ± 0.078 | 2.71 ± 0.05 | 2.76 ± 0.033
24 | RSIMKNRSVVYFKLDLT [RRI2] |  | 1.58 ± 0.22 |  | 
25 | RSINNLIQEHDSRKNRE [BRN1] | 3.24 ± 0.065 | 3.37 ± 0.052 | 3.15 ± 0.043 | 3.38 ± 0.053
26 | RSKNLIFNGETLEDALR [GRR1] | 2.92 ± 0.093 | 2.58 ± 0.054 | 2.65 ± 0.057 | 2.77 ± 0.07
27 | RSMLTVVRNMLALTTLS [YCG1] | 1.91 ± 0.061 | 1.9 ± 0.067 | 2.29 ± 0.065 | 2.49 ± 0.063
